According to PMC7431522:
Values belong to the molecule of their own block, whether it stands above or below them.

Key:
[1] = molecular target: T1, IL-10 receptor (IL-10R), mouse (mouse (endogenous in BMDMs and splenocytes)) (UniProt Q61727)
T1 sequence: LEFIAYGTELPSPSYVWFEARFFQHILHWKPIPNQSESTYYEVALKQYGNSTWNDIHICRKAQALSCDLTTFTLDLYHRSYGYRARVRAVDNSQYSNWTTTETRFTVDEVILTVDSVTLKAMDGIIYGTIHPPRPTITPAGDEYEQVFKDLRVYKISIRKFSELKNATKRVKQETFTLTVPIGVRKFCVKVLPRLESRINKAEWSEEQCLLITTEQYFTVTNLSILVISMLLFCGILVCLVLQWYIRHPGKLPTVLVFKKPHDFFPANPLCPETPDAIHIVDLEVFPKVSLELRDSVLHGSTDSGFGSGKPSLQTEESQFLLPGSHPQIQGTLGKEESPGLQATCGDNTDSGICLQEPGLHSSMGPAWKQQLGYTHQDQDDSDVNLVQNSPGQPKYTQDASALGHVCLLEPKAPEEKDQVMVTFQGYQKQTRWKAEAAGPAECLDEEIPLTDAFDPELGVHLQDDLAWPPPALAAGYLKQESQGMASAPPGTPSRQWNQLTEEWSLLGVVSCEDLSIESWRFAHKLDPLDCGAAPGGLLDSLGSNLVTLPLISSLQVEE

[2] = molecular target: T1, IL-10 receptor (IL-10R), mouse (mouse (endogenous in BMDMs and splenocytes)); remark: listed apart in the source
[3] = molecular target: T1, IL-10 receptor (IL-10R), mouse (mouse (endogenous in BMDMs and splenocytes)); remark: listed apart in the source
[4] = molecular target: T1, IL-10 receptor (IL-10R), mouse (mouse (endogenous in BMDMs and splenocytes)); remark: listed apart in the source

ED50, half-maximal suppression of LPS-induced luciferase in hTNF.LucBAC BMDMs (Figure 2C) [1]: 0.04 ng/mL
suppression of LPS-induced luciferase in hTNF.LucBAC BMDMs, 10 ng/mL [1]: 60%
ED50, suppression of LPS-induced luciferase in BMDMs (Figure 2H) [2]: 0.45 ng/mL
ED50 of biological activity, dose-response, data as AUC (Figure 5D) [3]: 0.36 ng/mL
Molecule: stable mouse IL-10 dimer, 7 amino acid linker (-G3SG3-) (ligand)

ED50, suppression of LPS-induced luciferase in BMDMs (Figure 2H) [2]: 0.38 ng/mL
Molecule: stable mouse IL-10 dimer, 13 amino acid linker (-G3SG4-SG4-) (ligand)

ED50, suppression of LPS-induced luciferase in mouse BMDMs (Figure 8A) [4]: 0.87 ng/mL
Molecule: natural human IL-10 (non-covalently linked) (from UniProt P22301 19-178) (ligand)

ED50 of biological activity, dose-response, data as AUC (Figure 5B) [3]: 59.3 ng/mL
Molecule: natural mouse IL-10 with RRCHR changed to ARCHA (from UniProt P18893 19-178) (ligand)

ED50 of biological activity, dose-response, data as AUC (Figure 5B) [3]: 0.28 ng/mL
Molecule: natural mouse IL-10 with RRCHR changed to RACHR (from UniProt P18893 19-178) (ligand)

ED50, suppression of LPS-induced luciferase in BMDMs (Figure 2H) [2]: 0.4 ng/mL
Molecule: stable mouse IL-10 dimer, 9 amino acid linker (-G3SG4S-) (ligand)

ED50 of biological activity, dose-response, data as AUC (Figure 5B) [3]: 0.96 ng/mL
Molecule: natural mouse IL-10 with RRCHR changed to AACHR (from UniProt P18893 19-178) (ligand)

ED50, half-maximal suppression of LPS-induced luciferase in hTNF.LucBAC BMDMs (Figure 2C) [1]: 0.17 ng/mL
suppression of LPS-induced luciferase in hTNF.LucBAC BMDMs, 10 ng/mL [1]: 60%
ED50, suppression of LPS-induced luciferase in BMDMs (Figure 2H) [2]: 1.5 ng/mL
ED50 of biological activity, dose-response, data as AUC (Figure 5B) [3]: 0.1 ng/mL
B1: natural mouse IL-10 (non-covalently linked) (ligand)
chain: SRGQYSREDNNCTHFPVGQSHMLLELRTAFSQVKTFFQTKDQLDNILLTDSLMQDFKGYLGCQALSEMIQFYLVEVMPQAEKHGPEIKEHLNSLGEKLKTLRMRLRRCHRFLPCENKSKAVEQVKSDFNKLQDQGVYKAMNEFDIFINCIEAYMMIKMKS

suppression of LPS-induced luciferase in hTNF.LucBAC BMDMs, 10 ng/mL [1]: 60%
B2: commercial mouse IL-10 (ligand)
chain: B1 chain
